According to paper PMC3176505 (Biochemistry, 2009):

Tests used:
[1] = test system: CCCCC1CCCC(=O)O1; assay: purified protein; settings: pH 8.3
[2] = test system: CCCCCC1CCCC(=O)O1; assay: purified protein; settings: pH 8.3

Row | Substance | Km [1] | kcat/Km [1] | Km [2] | kcat/Km [2]
1 | Dr0930 (Deinococcus radiodurans R1 = ATCC 13939 = DSM 20539; Y97F) | 200 ± 20 µM | 1700 ± 100 M⁻¹ s⁻¹ | – | –
2 | Dr0930 (Deinococcus radiodurans R1 = ATCC 13939 = DSM 20539; Y98F) | 400 ± 20 µM | 18000 ± 2000 M⁻¹ s⁻¹ | – | –
3 | Dr0930 (Deinococcus radiodurans R1 = ATCC 13939 = DSM 20539; Y28F) | 100 ± 20 µM | 270000 ± 40000 M⁻¹ s⁻¹ | – | –
4 | Dr0930 (Deinococcus radiodurans R1 = ATCC 13939 = DSM 20539) | 100 ± 20 µM | 420000 ± 70000 M⁻¹ s⁻¹ | 80 ± 10 µM | 200000 ± 20000 M⁻¹ s⁻¹
